Here are results for eleven molecules from patent publication US12006368 (SURROZEN OPERATING, dated 2024).

Numbering of substitutions follows the chain as printed.

One test deals with T1, Frizzled 6 (human, UniProt O60353 19-145, limits assumed).
T1 construct: the antigen of the phage ELISA is only called 'target antigen'; also called Fzd6; Fz6
T1 sequence (looked up): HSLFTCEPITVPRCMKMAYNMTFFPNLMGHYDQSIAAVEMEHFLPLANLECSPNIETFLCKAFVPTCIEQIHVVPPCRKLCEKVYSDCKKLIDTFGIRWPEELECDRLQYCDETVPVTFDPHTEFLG
In words: phage ELISA on immobilized antigen (initial binding). The procedure: (§1) Detection of bound phage was determined […] by turnover of TMB substrate (Thermo Fisher Scientific, Waltham, MA) at […] by anti-M13-HRP antibody (GE Healthcare, Pittsburgh, PA). Clones were identified as binding to a Fzd receptor when the fold OD 450 nm over background was greater than a threshold level.

The target in test [1] is T2, Fzd1 cysteine rich domain (CRD), C-terminally biotinylated (human, UniProt Q9UP38 101-230). In words: BLI; *=Kd <=100 nM. The procedure:
(§2) Binding kinetics of antibody fragments to a variety of Fzd cysteine rich domain (CRD) protein targets (Fzd1, Fzd2, Fzd3, Fzd4, Fzd5, Fzd6, Fzd7, Fzd8, Fzd9 and/or Fzd10 CRDs) was determined by bio-layer interferometry (BLI) using Octet Red 96 (PALL ForteBio, Fremont, CA) instruments at 30° C., 1000 rpm with streptavidin (SA) biosensors. C-terminal biotinylated Fzd CRD recombinant protein was diluted to 20 nM in the running buffer (PBS, 0.05% Tween-20, 0.5% BSA, pH 7.2) and captured to the SA biosensor until coupling length reached 0.2 nm. Following capture of the Fzd CRD, the SA biosensor with captured biotinylated-Fzd CRD was dipped into wells containing the relevant antibody fragment at […] (0, 1.37, 4.12, 12.4, 37, 111.1, 333.3, 1000 nM) in running buffer, plus a well with only running buffer as a reference channel. […] was determined by global fitting, 1:1 binding model according to manufacturer recommended settings.
(§3) One antibody fragment, clone 001S-A04, was selected for alanine-scanning mutagenesis of CDRs, and the respective Fzd1 binding affinities of the various mutants were determined by Octet BLI as described in Example 1.

Test [2] addresses T2, Fzd1 cysteine rich domain (CRD), …. In words: BLI; *=Kd <100 nM. Here is the method:
as §2
(§4) Table 1B provides clone IDs, the sequence identifier number of the antibody heavy chain fragment and/or light chain fragment, if present, for illustrative clones. In certain embodiments, the Fzd binding domain is an Fab or was derived from an Fab, so the heavy chain of Table 1B includes VH and CH1 sequence, but not CH2 or CH3 sequences. In certain embodiments, the Fzd binding domain is a VHH or sdAb® or was derived from a VHH or sdAb, so Table 1B includes the VHH domain. […] The Kd values were determined by BLI as described above. Blank entries denote that the binding to the specific Fzd receptor has not yet been determined. The entry of "n.b." indicates no binding.

Test [3] addresses T3, Fzd2 cysteine rich domain (CRD), C-terminally biotinylated (human, UniProt Q14332 24-155). In words: BLI; *=Kd <100 nM. Here is the method: as §2, §4
The target in test [4] is Fzd7 cysteine rich domain (CRD), C-terminally biotinylated (human, UniProt O75084 36-165). In words: BLI; *=Kd <100 nM. Here is the method: as §2, §4
The target of test [5] is T2, Fzd1 cysteine rich domain (CRD), …. In words: BLI; **=Kd >100 nM. Here is the method: as §2, §3
In test [6] the target is T4, hFzd3 CRD-Xtal (hFzd3_Q9NPG1_23-148) (human, UniProt Q9NPG1 23-148).
T4 construct: complex incubated with carboxypeptidase A and B before crystallisation
T4 sequence: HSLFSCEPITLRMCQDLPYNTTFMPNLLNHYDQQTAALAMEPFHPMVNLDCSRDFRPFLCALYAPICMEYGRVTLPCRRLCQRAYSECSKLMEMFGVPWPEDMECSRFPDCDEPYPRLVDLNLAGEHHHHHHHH
In words: size-exclusion chromatography of the Fzd CRD_Xtal:Fab mixture. Here is the method:
(§5) Purfied Fzd CRD_Xtal and Fab binders were mixed at 1.1:1 molar ratio (little excess of the smaller molecular weight protein), and incubated with carboxy-peptidase A and B at a w/w ratio of 100:1 for over-night at 4° C. Complex formation was confirmed by observation of a single-major peak on SuperdexS200 Increase (10/300 GL) column pre-equilibrated in HBS. Fractions containing complexes were further checked by SDS-PAGE, and concentrated to a range from 10 to 55 mg/mL for crystallization screens. Initial crystallization screen, using commercially available MCSG1, MCSG2, MCSG3, MCSG4, PACT (Molecular Dimensions), PEGs I, and PEGs II (Qiagen) screen, and optimization by grid-screens or microseed matrix screen [MMS; Microseed matrix screening for optimization in protein crystallization: what have we learned? D'Arcy, A., Bergfors, T., Cowan-Jacob S. W., and Marshd, M. Acta Cryst. F70, 1117-1126 (2014)]. were performed using Mosquito (TTP LabTech) liquid handler, and equilibrated at 18° C. inside an EchoTherm incubator (Torrey Pines Scientific). 96-well plate crystal screening experiments were periodically monitored manually via a DiscoveryV20 stereomicroscope (Zeiss), and crystals were frozen for data collection by plunging into liquid nitrogen in the presence of various cryo-protectants (typically 15 to 30% v/v of glycerol or ethyleneglycol). X-ray diffraction datasets were collected at the Berkeley Center for Structural Biology at the Advanced Light Source (ALS), Berkeley CA, and processed with XDS [Kabsch, W. XDS. Acta Cryst. D66, 125-132 (2010)], and xdsme [Legrand, P. XDSME: XDS Made Easier (2017) GitHub repository, https://github-.com/legrandp/xdsme DOI 10.5281/zenodo.837885]. programs. Structure of Fzd:Fab complexes were determined by molecular replacement method using Phaser with constant and variable domains of related Fabs are template [Phaser crystallographic software. A. J. McCoy, R. W. Grosse-Kunstleve, P. D. Adams, M. D. Winn, L. C. Storoni, and R. J. Read. J Appl Crystallogr 40, 658-674 (2007)], followed by refinement and validation by MolProbity as implemented in Phenix [PHENIX: a comprehensive Python-based system for macromolecular structure solution.

For the next test, the target named is T5, Frizzled 3 (human, UniProt Q9NPG1 23-148, limits assumed).
T5 construct: Target antigen immobilised on plates in the phage ELISA; also called Fzd3; Fz3
T5 sequence (looked up): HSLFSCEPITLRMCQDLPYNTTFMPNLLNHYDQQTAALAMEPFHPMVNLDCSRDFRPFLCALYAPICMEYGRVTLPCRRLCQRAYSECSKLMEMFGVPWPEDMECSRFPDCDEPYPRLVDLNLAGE
In words: phage ELISA on immobilised antigen (initial binding). The procedure:
as §1

In test [7] the target is hFzd1 CRD-Xtal (hFzd1_Q9UP38_101-230) (human, UniProt Q9UP38 101-230). In words: size-exclusion chromatography of the Fzd CRD_Xtal:Fab mixture. The procedure:
as §5

Test [8] deals with T3, Fzd2 cysteine rich domain (CRD), …. In words: BLI; **=Kd 100-2000 nM. The procedure: as §2, §4
The target in test [9] is T6, hFzd5 CRD-Xtal (hFzd5_Q13467_27-152) (human, UniProt Q13467 27-152).
T6 construct: complex incubated with carboxypeptidase A and B before crystallisation
T6 sequence: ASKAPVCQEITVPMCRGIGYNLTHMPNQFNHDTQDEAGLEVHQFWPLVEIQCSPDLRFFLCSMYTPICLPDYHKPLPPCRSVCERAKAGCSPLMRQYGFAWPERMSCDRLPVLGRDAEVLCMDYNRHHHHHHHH
In words: size-exclusion chromatography of the Fzd CRD_Xtal:Fab mixture. The procedure:
as §5

For a further test, the target named is T7, Fzd5 (UniProt Q13467 27-152, limits assumed).
T7 construct: immobilised target antigen of the phage ELISA and the Fzd named in specificity sentences; also called Frizzled 5; Fz5
T7 sequence (looked up): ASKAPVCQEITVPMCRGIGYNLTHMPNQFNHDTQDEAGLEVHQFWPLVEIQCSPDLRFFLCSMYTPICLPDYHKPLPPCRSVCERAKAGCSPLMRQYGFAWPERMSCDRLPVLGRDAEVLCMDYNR
In words: phage ELISA on immobilised antigen. Here is the method: as §1

B1: 004S-E09 (antibody, V domains shown)
VH: QVQLVQSGAEVKKPGASVKVSCKASGDTFSNYVISWVRQAPGQGLEWMGRISAYNGYKSYAQNFQGRVTMTRDTSTSTVYMELSSLRSEDTAVYYCARSSGYVGWFDPWGQGTLVTVSS
VL: not shown
Turning to B1, the binding result with Frizzled 6 was “binds”.

B2: 001S-A04 (Fab, V domains shown)
VH: EVQLVQSGAEVKKPGASVKVSCKASGYTFTSYGISWVRQAPGQGLEWMGWISAYNGNTNYAQKLQGRVTMTTDTSTSTAYMELRSLRSDDTAVYYCASSKEKATYYYGMDVWGQGTTVTVSS
VL: QAVVLQEPSLSVSPGGTVTLTCGLSSGSVSTNYYPSWYQQTPGQAPRTLIYYTNTRSSDVPERFSGSIVGNKAALTITGAQPDDESVYFCLLYLGRGIWVFGGGTKLTVLG
notes: also called R2M3; WT
On to B2, for which the KD in [1] was no more than 100 nM. Moreover, the Kd in [2], in test [3] and in test [4] was less than 100 nM each time.

B3: 001S-A04 mutant VHY9A (Fab, V domains shown)
VH: B2 VH with Y107A
VL: B2 VL
In [5], B3 displayed a KD greater than 100 nM.

B4: 001S-A04 mutant VHY7A (Fab, V domains shown)
VH: B2 VH with Y105A
VL: B2 VL
B4 came in with a KD in test [5] greater than 100 nM.

B5: 001S-A04 mutant VLW9A (Fab, V domains shown)
VH: B2 VH
VL: B2 VL with W99A
B5: in test [5], the KD is greater than 100 nM.

B6: 029S-E03 Fab (Fab, V domains shown)
VH: QVQLVQSGAEVKKPGASVKVSCKASGYTFTGYYMHWVRQAPGQGLEWMGWINPNSGNTGYAQKFQGRVTMTRDTSTSTVYMELSSLRSEDTAVYYCARSYYGVIDAFDIWGQGTMVTVSS
VL: DIQMTQSPSSLSASVGDRVTITCRASQSISSYLNWYQQKPGKAPKLLIYAASSLQTGVPSRFSGSGSGTDFTLTISSLQPEDFATYYCQQSFRLPLTFGQGTKVEIKR
notes: heavy chain with C-terminal hexa-histidine tag; carboxypeptidase A and B treated in the complex
As to B6, the binding result in test [6] was “binds”.

B7: 029S-E03 (Fab, V domains shown)
VH: B6 VH
VL: B6 VL
Regarding B7, the binding result with Frizzled 3 is “binds”.

B8: R2M9 (003S-E07) Fab (Fab, V domains shown)
VH: QVQLVQSGAEVKKPGSSVKVSCKASGYTFTNNFMHWVRQAPGQGLEWMGWINPNSGGTKYAQKFQGRVTITADESTSTAYMELSSLRSEDTAVYYCARSVGEVGATMLGIGVWYWFDPWGQGTLVTVSS
VL: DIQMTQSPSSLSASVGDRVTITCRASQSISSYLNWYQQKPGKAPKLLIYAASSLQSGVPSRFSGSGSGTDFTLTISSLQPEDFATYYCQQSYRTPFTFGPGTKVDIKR
notes: as for B6
Take B8: the binding result in test [7] is “binds”.

B9: 001S-E02 (Fab, V domains shown)
VH: QVQLQESGPGLVKPSETLSLTCTVSGGSISGNNYYWGWIRQPPGKGLEWIGSIYFTGGTYYNPSLKSRVTISVDTSKNQFSLKLSSVTAADTAVYYCARVMLITDAFDIWGQGTMVTVSS
VL: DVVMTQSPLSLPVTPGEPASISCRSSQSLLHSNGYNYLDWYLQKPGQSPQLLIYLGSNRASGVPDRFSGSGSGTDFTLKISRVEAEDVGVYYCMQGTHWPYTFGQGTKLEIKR
As for B9, the values for the Kd in test [2], in test [4] and in test [8] were less than 100 nM, less than 100 nM and 100 to 2000 nM, respectively.

B10: 4A12 Fab (Fab, V domains shown)
VH: QVQLQQSGPELVKPGASVKLSCKASGYTFTNYDINWVKQRPGQGLEWIGWIYPRDGSTKYNEKFKGKATLTVDTSSSTAYMELHSLTSEDSAVYFCVRSAWGFAYWGQGTLVTVSA
VL: DIVMTQSHKFMSTSVGDRVSITCKASQDVGTAVAWYQQKPGQSPKLLIYWASTRHTGVPDRFTGSGSGTDFTLTINNVQSEDLADYFCQQYSTYPLTFGAGTKLELKR
notes: as for B6
B10: the binding result in test [9] was “binds”.

B11: 004S-E05 Fab (Fab, V domains shown)
VH: EVQLVESGGGLVQPGGSLRLSCAASGFTFSTYEMNWVRQAPGKGLEWVSGVSWNGSRTHYVDSVKGRFTISRDNSKNTLYLQLNSLRAEDTAVYYCARGQSEKWWSGLYGMDVWGQGTTVTVSS
VL: DIQMTQSPSSLSASVGDRVTITCRASQGISSALAWYQQKPGKAPKLLIYAASALQSGVPSRFSGSGSGTDFTLTISSLQPEDFATYYCQQTYSTPRTFGPGTKVDIKR
notes: Fab chains as crystallised (heavy chain with hexa-histidine tag); also called 004S-E050
Turning to B11, the binding result (in test [9]; in the test with Fzd5) was “binds” throughout.
